The target in this test is T1, Smc1^Psm1-SNAP subunit of the fission yeast cohesin tetramer (head-tagged variant, TMR-labelled) (fission yeast, UniProt O94383 1-1228, TMR fluorophore on the SNAP-tag).
T1 construct: Psm1 (Smc1), fission yeast cohesin subunit; source: recombinant, purified as part of the cohesin tetramer; not shown: SNAP-tag, C-terminal, kept
T1 sequence (looked up): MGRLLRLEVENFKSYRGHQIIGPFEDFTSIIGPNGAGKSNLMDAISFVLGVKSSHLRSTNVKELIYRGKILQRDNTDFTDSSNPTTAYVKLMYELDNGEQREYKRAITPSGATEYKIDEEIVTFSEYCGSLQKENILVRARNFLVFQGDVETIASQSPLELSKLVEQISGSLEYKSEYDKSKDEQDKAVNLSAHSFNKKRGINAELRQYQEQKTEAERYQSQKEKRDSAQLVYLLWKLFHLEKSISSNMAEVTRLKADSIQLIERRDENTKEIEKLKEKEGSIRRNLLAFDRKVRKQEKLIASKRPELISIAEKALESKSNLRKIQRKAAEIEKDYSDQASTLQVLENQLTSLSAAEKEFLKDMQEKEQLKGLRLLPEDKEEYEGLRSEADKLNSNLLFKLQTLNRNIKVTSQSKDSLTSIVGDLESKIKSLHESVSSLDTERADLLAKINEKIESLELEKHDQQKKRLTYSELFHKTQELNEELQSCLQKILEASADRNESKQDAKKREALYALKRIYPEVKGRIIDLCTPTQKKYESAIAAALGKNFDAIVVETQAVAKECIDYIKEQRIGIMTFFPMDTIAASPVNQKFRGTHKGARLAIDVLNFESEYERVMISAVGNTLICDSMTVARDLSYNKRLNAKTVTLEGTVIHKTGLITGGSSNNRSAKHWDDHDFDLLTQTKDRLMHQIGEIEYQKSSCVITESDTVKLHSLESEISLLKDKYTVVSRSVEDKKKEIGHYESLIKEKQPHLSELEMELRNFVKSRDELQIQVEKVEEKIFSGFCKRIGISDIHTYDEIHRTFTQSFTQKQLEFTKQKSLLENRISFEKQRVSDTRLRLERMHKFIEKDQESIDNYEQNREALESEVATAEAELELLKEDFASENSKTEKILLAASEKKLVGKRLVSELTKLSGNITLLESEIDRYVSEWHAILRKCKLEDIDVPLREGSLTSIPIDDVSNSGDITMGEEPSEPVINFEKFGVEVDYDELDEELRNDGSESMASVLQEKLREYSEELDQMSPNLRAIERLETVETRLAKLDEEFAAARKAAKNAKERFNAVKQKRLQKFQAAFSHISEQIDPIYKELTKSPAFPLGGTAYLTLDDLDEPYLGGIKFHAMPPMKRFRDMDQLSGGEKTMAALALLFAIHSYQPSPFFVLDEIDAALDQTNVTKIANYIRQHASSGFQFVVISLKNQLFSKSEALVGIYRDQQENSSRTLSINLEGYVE
Description: co-purification of the recombinant complex (SDS-PAGE, Coomassie); purified cohesin complex resolved by SDS-PAGE; purification methods in the Supplementary Information.

B1: Smc3^Psm3-CLIP-biotin subunit of the fission yeast cohesin tetramer (head-tagged variant) (natural protein, UniProt O42649 1-1194, looked up)
chain: MYITKIVIQGFKSYKDYTVIEPLSPHHNVIVGRNGSGKSNFFAAIRFVLSDAYTHLSREERQALLHEGPGATVMSAYVEVTFANADNRFPTGKSEVVLRRTIGLKKDEYSLDKKTVSKTEVINLLESAGFSRSNPYYIVPQGRVTSLTNAKDSERLELLKEVAGTQIYENRRAESNKIMDETIQKSEKIDELLQYIEERLRELEEEKNDLAVYHKKDNERRCLEYAIYSREHDEINSVLDALEQDRIAALERNDDDSGAFIQREERIERIKAEITELNHSLELLRVEKQQNDEDYTNIMKSKVALELQSSQLSRQIEFSKKDESSKLNILSELESKISEKENELSEILPKYNAIVSEADDLNKRIMLLKNQKQSLLDKQSRTSQFTTKKERDEWIRNQLLQINRNINSTKENSDYLKTEYDEMENELKAKLSRKKEIEISLESQGDRMSQLLANITSINERKENLTDKRKSLWREEAKLKSSIENVKDDLSRSEKALGTTMDRNTSNGIRAVKDIAERLKLEGYYGPLCELFKVDNRFKVAVEATAGNSLFHIVVDNDETATQILDVIYKENAGRVTFMPLNKLRPKAVTYPDASDALPLIQYLEFDPKFDAAIKQVFSKTIVCPSIETASQYARSHQLNGITLSGDRSDKKGALTAGYRDYRNSRLDAIKNVKTYQIKFSDLQESLEKCRSEIESFDQKITACLDDLQKAQLSLKQFERDHIPLKDELVTITGETTDLQESMHHKSRMLELVVLELHTLEQQANDLKSELSSEMDELDPKDVEALKSLSGQIENLSHEFDAIIKERAHIEARKTALEYELNTNLYLRRNPLKAEIGSDNRIDESELNSVKRSLLKYENKLQIIKSSSSGLEEQMQRINSEISDKRNELESLEELQHEVATRIEQDAKINERNAAKRSLLLARKKECNEKIKSLGVLPEEAFIKYVSTSSNAIVKKLHKINEALKDYGSVNKKAYEQFNNFTKQRDSLLARREELRRSQESISELTTVLDQRKDEAIERTFKQVAKSFSEIFVKLVPAGRGELVMNRRSELSQSIEQDISMDIDTPSQKSSIDNYTGISIRVSFNSKDDEQLNINQLSGGQKSLCALTLIFAIQRCDPAPFNILDECDANLDAQYRSAIAAMVKEMSKTSQFICTTFRPEMVKVADNFYGVMFNHKVSTVESISKEEAMAFVEG
modifications: biotin on the CLIP-tag
notes: Psm3 (Smc3), fission yeast cohesin subunit; source: recombinant, purified as part of the cohesin tetramer; not shown: CLIP-tag, C-terminal, kept
B1: the binding result is listed as “binds”.

For the origin of these results see paper PMC11377297, “Mechanical disengagement of the cohesin ring” (Nature Structural & Molecular Biology, 2023).
